Laboratory results: US20160264649A1

Assays:
Assay in all cases: cell-based or functional assay
[1] = target: HIV-1 Env of isolate MGRM-F1-006 (subtype F) (HIV-1)
[2] = target: HIV-1 Env of isolate 92UG046 (subtype D) (HIV-1)
[3] = target: HIV-1 Env of isolate MGRM-D-026 (subtype D) (HIV-1)
[4] = target: HIV-1 Env of pseudovirus isolate MGRM-G-019 (subtype G) (HIV-1)
[5] = target: HIV-1 Env of isolate 92UG005 (subtype D) (HIV-1)
[6] = target: HIV-1 Env of isolate MGRM-F1-013 (subtype F) (HIV-1)
[7] = target: HIV-1 Env of isolate MGRM-F1-022 (subtype F) (HIV-1)
[8] = target: HIV-1 Env of isolate MGRM-D-019 (subtype D) (HIV-1)
[9] = target: HIV-1 Env of isolate MGRM-F1-014 (subtype F) (HIV-1)
[10] = target: HIV-1 Env of isolate MGRM-F1-004 (subtype F) (HIV-1)
[11] = target: HIV-1 Env of isolate MGRM-F1-015 (subtype F) (HIV-1)
[12] = target: HIV-1 Env of isolate MGRM-D-022 (subtype D) (HIV-1)
[13] = target: HIV-1 Env of isolate MGRM-F1-016 (subtype F) (HIV-1)
[14] = target: HIV-1 Env of isolate MGRM-F1-010 (subtype F) (HIV-1)
[15] = target: HIV-1 Env of pseudovirus isolate MGRM-G-017 (subtype G) (HIV-1)
[16] = target: HIV-1 Env of pseudovirus isolate MGRM-G-015 (subtype G) (HIV-1)
[17] = target: HIV-1 Env of isolate MGRM-D-013 (subtype D) (HIV-1)
[18] = target: HIV-1 Env of isolate MGRM-D-018 (subtype D) (HIV-1)
[19] = target: HIV-1 Env of isolate MGRM-D-020 (subtype D) (HIV-1)
[20] = target: HIV-1 Env of pseudovirus isolate MGRM-G-027 (subtype G) (HIV-1)
[21] = target: HIV-1 Env of isolate MGRM-D-029 (subtype D) (HIV-1)
[22] = target: HIV-1 Env of isolate MGRM-F1-023 (subtype F) (HIV-1)
[23] = target: HIV-1 Env of pseudovirus isolate MGRM-G-004 (subtype G) (HIV-1)
[24] = target: HIV-1 Env of isolate MGRM-D-012 (subtype D) (HIV-1)
[25] = target: HIV-1 Env of isolate MGRM-F1-008 (subtype F) (HIV-1)
[26] = target: HIV-1 Env of isolate MGRM-D-002 (subtype D) (HIV-1)
[27] = target: HIV-1 Env of pseudovirus isolate MGRM-G-016 (subtype G) (HIV-1)
[28] = target: HIV-1 Env of isolate MGRM-D-008 (subtype D) (HIV-1)
[29] = target: HIV-1 Env of isolate MGRM-D-021 (subtype D) (HIV-1)
[30] = target: HIV-1 Env of isolate MGRM-D-011 (subtype D) (HIV-1)
[31] = target: HIV-1 Env of isolate MGRM-D-005 (subtype D) (HIV-1)
[32] = target: HIV-1 Env of pseudovirus isolate MGRM-G-013 (subtype G) (HIV-1)
[33] = target: HIV-1 Env of pseudovirus isolate MGRM-G-011 (subtype G) (HIV-1)
[34] = target: HIV-1 Env of isolate MGRM-F1-018 (subtype F) (HIV-1)
[35] = target: HIV-1 Env of pseudovirus isolate MGRM-G-014 (subtype G) (HIV-1)
[36] = target: HIV-1 Env of isolate MGRM-D-003 (subtype D) (HIV-1)
[37] = target: HIV-1 Env of pseudovirus isolate MGRM-G-028 (subtype G) (HIV-1)
[38] = target: HIV-1 Env of isolate MGRM-D-004 (subtype D) (HIV-1)
[39] = target: HIV-1 Env of isolate MGRM-F1-021 (subtype F) (HIV-1)
[40] = target: HIV-1 Env of isolate MGRM-D-024 (subtype D) (HIV-1)
[41] = target: HIV-1 Env of pseudovirus isolate MGRM-G-006 (subtype G) (HIV-1)
[42] = target: envelope of aMLV pseudovirus (negative control)
[43] = target: HIV-1 Env of isolate MGRM-F1-017 (subtype F) (HIV-1)
[44] = target: HIV-1 Env of pseudovirus isolate MGRM-G-009 (subtype G) (HIV-1)
[45] = target: HIV-1 Env of isolate 92UG001 (subtype D) (HIV-1)
[46] = target: HIV-1 Env of pseudovirus isolate MGRM-G-001 (subtype G) (HIV-1)
[47] = target: HIV-1 Env of isolate MGRM-D-028 (subtype D) (HIV-1)
[48] = target: HIV-1 Env of isolate MGRM-D-016 (subtype D) (HIV-1)
[49] = target: HIV-1 Env of isolate 92UG024 (subtype D) (HIV-1)
[50] = target: HIV-1 Env of isolate MGRM-F1-012 (subtype F) (HIV-1)
[51] = target: HIV-1 Env of isolate 98CN006 (subtype CRF08_BC) (HIV-1)
[52] = target: HIV-1 Env of isolate 98CN009 (subtype CRF07_BC) (HIV-1)
[53] = target: HIV-1 Env of isolate MGRM-F1-020 (subtype F) (HIV-1)
[54] = target: HIV-1 Env of isolate 92UG114 (subtype D) (HIV-1)
[55] = target: HIV-1 Env of isolate MGRM-D-014 (subtype D) (HIV-1)
[56] = target: HIV-1 Env of pseudovirus isolate MGRM-G-025 (subtype G) (HIV-1)
[57] = target: HIV-1 Env of isolate MGRM-D-001 (subtype D) (HIV-1)
[58] = target: HIV-1 Env of pseudovirus isolate MGRM-G-024 (subtype G) (HIV-1)

PGT-121 (antibody)
IC50 (neutralization) [1]: 5.33 µg/mL | IC50 (neutralization) [2]: > 50 µg/mL | IC50 (neutralization) [3]: > 50 µg/mL | IC50 [4]: 0.011 µg/mL | IC50 (neutralization) [5]: 18.3 µg/mL | IC50 (neutralization) [6]: 0.083 µg/mL | IC50 (neutralization) [7]: 0.104 µg/mL | IC50 (neutralization) [8]: > 50 µg/mL | IC50 (neutralization) [9]: 0.082 µg/mL | IC50 (neutralization) [10]: 1.67 µg/mL | IC50 (neutralization) [11]: 28.4 µg/mL | IC50 (neutralization) [12]: > 50 µg/mL | IC50 (neutralization) [13]: 0.931 µg/mL | IC50 (neutralization) [14]: 0.016 µg/mL | IC50 [15]: 0.004 µg/mL | IC50 [16]: > 50 µg/mL | IC50 (neutralization) [17]: > 50 µg/mL | IC50 (neutralization) [18]: 0.005 µg/mL | IC50 (neutralization) [19]: 0.01 µg/mL | IC50 [20]: 0.124 µg/mL | IC50 (neutralization) [21]: > 50 µg/mL | IC50 (neutralization) [22]: 0.097 µg/mL | IC50 [23]: 0.115 µg/mL | IC50 (neutralization) [24]: > 50 µg/mL | IC50 (neutralization) [25]: > 50 µg/mL | IC50 (neutralization) [26]: 0.006 µg/mL | IC50 [27]: > 50 µg/mL | IC50 (neutralization) [28]: > 50 µg/mL | IC50 (neutralization) [29]: 5.33 µg/mL | IC50 (neutralization) [30]: 0.018 µg/mL | IC50 (neutralization) [31]: > 50 µg/mL | IC50 [32]: 3.99 µg/mL | IC50 [33]: 3.17 µg/mL | IC50 (neutralization) [34]: 0.04 µg/mL | IC50 [35]: 0.009 µg/mL | IC50 (neutralization) [36]: 10.7 µg/mL | IC50 [37]: 0.014 µg/mL | IC50 (neutralization) [38]: > 50 µg/mL | IC50 (neutralization) [39]: 0.099 µg/mL | IC50 (neutralization) [40]: 0.038 µg/mL | IC50 [41]: > 50 µg/mL | IC50 [42]: > 50 µg/mL | IC50 (neutralization) [43]: 16.9 µg/mL | IC50 [44]: 0.02 µg/mL | IC50 (neutralization) [45]: > 50 µg/mL | IC50 [46]: 0.004 µg/mL | IC50 (neutralization) [47]: 0.009 µg/mL | IC50 (neutralization) [48]: > 50 µg/mL | IC50 (neutralization) [49]: > 50 µg/mL | IC50 (neutralization) [50]: 1.91 µg/mL | IC50 (neutralization) [51]: 0.01 µg/mL | IC50 (neutralization) [52]: 0.009 µg/mL | IC50 (neutralization) [53]: 0.167 µg/mL | IC50 (neutralization) [54]: 0.004 µg/mL | IC50 (neutralization) [55]: 0.009 µg/mL | IC50 [56]: 0.063 µg/mL | IC50 (neutralization) [57]: 0.615 µg/mL | IC50 [58]: 0.014 µg/mL

PGT-122 (antibody)
IC50 (neutralization) [1]: 3.27 µg/mL | IC50 (neutralization) [2]: > 50 µg/mL | IC50 (neutralization) [3]: > 50 µg/mL | IC50 [4]: 0.016 µg/mL | IC50 (neutralization) [5]: > 50 µg/mL | IC50 (neutralization) [6]: 0.152 µg/mL | IC50 (neutralization) [7]: 0.277 µg/mL | IC50 (neutralization) [8]: > 50 µg/mL | IC50 (neutralization) [9]: 0.195 µg/mL | IC50 (neutralization) [10]: 1.29 µg/mL | IC50 (neutralization) [11]: 31.4 µg/mL | IC50 (neutralization) [12]: > 50 µg/mL | IC50 (neutralization) [13]: 4.81 µg/mL | IC50 (neutralization) [14]: 0.024 µg/mL | IC50 [15]: 0.032 µg/mL | IC50 [16]: > 50 µg/mL | IC50 (neutralization) [17]: > 50 µg/mL | IC50 (neutralization) [18]: 0.007 µg/mL | IC50 (neutralization) [19]: 0.007 µg/mL | IC50 [20]: 0.606 µg/mL | IC50 (neutralization) [21]: > 50 µg/mL | IC50 (neutralization) [22]: 0.154 µg/mL | IC50 [23]: 2.15 µg/mL | IC50 (neutralization) [24]: > 50 µg/mL | IC50 (neutralization) [25]: > 50 µg/mL | IC50 (neutralization) [26]: 0.005 µg/mL | IC50 [27]: > 50 µg/mL | IC50 (neutralization) [28]: > 50 µg/mL | IC50 (neutralization) [29]: 11.7 µg/mL | IC50 (neutralization) [30]: 0.019 µg/mL | IC50 (neutralization) [31]: > 50 µg/mL | IC50 [32]: 3.45 µg/mL | IC50 [33]: 31.3 µg/mL | IC50 (neutralization) [34]: 0.563 µg/mL | IC50 [35]: 0.008 µg/mL | IC50 (neutralization) [36]: > 50 µg/mL | IC50 [37]: 0.01 µg/mL | IC50 (neutralization) [38]: > 50 µg/mL | IC50 (neutralization) [39]: 2.3 µg/mL | IC50 (neutralization) [40]: 0.185 µg/mL | IC50 [41]: > 50 µg/mL | IC50 [42]: > 50 µg/mL | IC50 (neutralization) [43]: > 50 µg/mL | IC50 [44]: 0.514 µg/mL | IC50 (neutralization) [45]: > 50 µg/mL | IC50 [46]: 0.005 µg/mL | IC50 (neutralization) [47]: 3.34 µg/mL | IC50 (neutralization) [48]: > 50 µg/mL | IC50 (neutralization) [49]: > 50 µg/mL | IC50 (neutralization) [50]: > 50 µg/mL | IC50 (neutralization) [51]: 0.021 µg/mL | IC50 (neutralization) [52]: 0.013 µg/mL | IC50 (neutralization) [53]: 0.321 µg/mL | IC50 (neutralization) [54]: 0.011 µg/mL | IC50 (neutralization) [55]: 0.012 µg/mL | IC50 [56]: 0.079 µg/mL | IC50 (neutralization) [57]: 1.13 µg/mL | IC50 [58]: 0.033 µg/mL
